Laboratory results taken from the supplement of paper PMC9170038.

test system: K4 kissing-loop RNA reporter; test: apparent KD of K4 kissing-loop reporter; higher = weaker reporter binding; conditions: Eterna round: R107; input ligand: theophylline 20 uM
Protocol: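 RNA-MaP round R107: designed RNA switches with theophylline, tryptophan, arginine or FMN aptamers are transcribed on-chip within common flanks. They are titrated with a labelled K4 kissing-loop RNA reporter in RNA-MaP buffer (100 mM Tris pH 7.5, 80 mM KCl, 4 mM MgCl2), without ligand or with the indicated ligand. Median apparent KD per design.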
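Further: bound reporter read as fluorescence of individual clusters on recovered sequencing chips by microscopy, with normalized cluster intensities fitted with a binding model.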

Sequence | apparent KD of K4 kissing-loop reporter [µM]
AUGGUAUUGCGAGGAUAUCCUUCAAAUGUGACACUAACGGCAGUGAUGUUGCCGGCGUCUUUUUGAGGAGAAGGCGCGGUGUUAU [Exclusion FMN B GF 24] | 0.114
CCGAAGAACCAGUGAUGUUGGUUGACUAGACAGGAUAUGAGCAACAUCAGAAGGGUCUGGCUUCGGGAGAGAGUCGCGCUGACCU [Anditebier] | 0.0287
GCGAUCUGCAUCGAUACCAGCCCAGUGAUGUUGGGCUGCUCUCCAUGGGUGCCAGACACGGGCCCUUGGCAGCGAGGUAGAGCCC [Maonzaa] | 0.113
GAGCGGUGGAGGUUACCGCUAUUCUGAGAAGGAGCGCAGAUGACUGCAGGUAGGUCGCUUAGAGCUUGCAGUGAUGUUGCAAGUU [Edrirama] | 0.193
CGAGUGAUGUUCGAAGAGUUGUUGAGCGAUACCAGCCAGGAAACUGGCCCUUGGCAGCGUAAUAAAUAAAUAAAUAAAUGAUCAC [whbob_Ex_Theo_A_th61] | 0.635
GACUCAUGUAGAAGGAGCGUCAGAAGCUACAGACAUGAGUGAUGUUCAUGUUAGUUGAUCUGACAGGUAGGUCGCUACAGCAGGA [KL-SSArg B14 #analogue] | 0.141
UUACGCGGCAUAGAUACCAGCAAUGCAGGAUAGGUCAAGAGUGAUGUUCUGAUACUUGGGUGCCCUUGGCAGCUAGACGAUAACA [theeternabot_sameState_KL_Theo_B_46] | 0.412
AAUAAACAGUCGGCCGCCACUUCAAUAGACUUAUUAUUGAAUGGUGUAGUUCUUCAGUGAUGUUGAAGGACCGGGACUUUCGCGC [Isesator] | 0.139
CAGCAGAGUGAUGUUCUGCUUACUGCGGAUACCAGCUUUGCCAGAGGCCCUUGGCAGCCGCACGGCUCAGUGAUGUUGGGUCACG [Same State Theophylline A GF 13] | 0.323
UGAUAGGACAGAAGGAGCGGAAGCUAGUCAAAGACUAGCAAACGUUAAACAGGAGUGAUGUUCCAGGUAGGUCGCUGUCCUAUCU [ArgBX 23 #SwitchBubble #StaticStem] | 0.133
UAUUGUACAGGGAAAUUGAUAAUAGACUUACGAGGACCGGUACGGCCGCCACUCGAUAGUCGAGUGAUGUUCGAAUGCUAUUGAU [Attempt 1] | 0.314
UGAUACCAGACGGCCGCCACUUCUGCAAGUCAAAGACUUGCCAAGGGAAUCGUCCAGUGAUGUUGGAGGACCGGGUCUGGUAUCU [FiskerMod 3 - Jieux - Exclusion - Tryptophan B] | 0.585

same assay, conditions: Eterna round: R107; input ligand: tryptophan 2.4 mM

Sequence | apparent KD of K4 kissing-loop reporter [µM]
UGAUUGCCAGUGAUGUUGGCAUAUACUGAAGGAGCGCGUGAAAACGCAGGUAGGUCGCAGUUCCUUGCCAAUUGAUCGAAAGAUC [KL-XArg-A1] | 0.127
AAGAGGUAGGCGGCCGCCACUAGUUGUGAACACAUACGAGCCAGUGAUGUUGGUAUGGUGGGCGGUAGGACCGGGCCUACCUGAA [Exclusion - Tryptophan B (Freestyle 18)] | 0.475
GUGCGCGCGGCGGCCGCCACUCGCAUGAGAGUGAUGUUCUUGCCCGGGCCGCAAGGCCCGGGUGUGAGGACCGGGCCGGGCUGCG [#2 Same State - Tryptophan B Attempt #26 (HarryS)] | 0.425
CCGACUGCAGGAAGGAGCGGCGGUUGGAGUGAUGUUCCGGGUAGUGAUGUUACCAAGAUCCGCCAGGUAGGUCGCCUGUUGCUCG [Same State Arginine B GF11] | 0.12
AAUGUACAAGUGAUGUUUGUACUUUCCGAAGGAGCGUCUAAUAAGACAGGUAGGUCGCGGAUUAUCAUAAUUAUCAGGUUUUCAA [JR_SSArginiA_Sub015] | 0.0909
UGACUGGACUGAAGGAGCGUUGAAGGAGCGUAGUGAGUGAUGUUCACUACAGGUAGGUCGCAGCAGGUAGGUCGCAGUCUAGUCU [ArgBS 25 #DoubleAptamer #SwitchBubble] | 0.145
UGAUACCAGACGGCCGCCACUUCCGUAAGUCAAAGACUUGCCAAGGGAAUCGUCCAGUGAUGUUGGAGGACCGGGUCUGGUAUCU [FiskerMod 5 - Jieux - Exclusion - Tryptophan B] | 0.55
AAUAUAUAGUGAAGGAGCGCGAUAAGCAGUGAUGUUGCUUUGUUAUGAUUGUCUAUUUUUACGCAGGUAGGUCGCACUAUAUAUA [JR_ExcArginiB_Sub020] | 0.122
UAGAGCAUCGCAGGAUAUCCUGCUUAACGUUGGAUUCCAGUGAUGUUGGAAAGCCGGCCUAGGGUAGGAGAAGGGCGGAUUUGAA [Edvean] | 0.149
AGGAGCUGUCGACAAAAGUCGACAUAAACCAAGGAUAUGACGAAAGUCAGAAGGUGGUCAUAAGACCAGUGAUGUUGGUAGCUCC [FmnA 10 #SwitchBubble #K4Late] | 0.338
CAUGGGCCAGUGAUGUUGGCGCGCACGGGACGAGGACCGGUACGGCCGCCACUCGCUUUUGCUCUUAUCGGGAUAAGAAAACCGA [Enveerorle] | 0.635
UUUUUUAAUGGAAGGAGCGCGUGGGCGCAGUGAUGUUGCGCCCGACAUCACUUCAACUUAACGCAGGUAGGUCGCCAUUAUUUUU [Arginine B (Excl) V6] | 0.127
AGCUCAGAGUGACUCGAUAAGAGUCACAAACGAGGACCGGUACGGCCGCCACUCGAAAUAACGAGAGUGAUGUUCUCGCUGAGCA [#SwitchBubble 1 #StaticStem #K4Late] | 0.34
UAUCGAGUGAUGUUCGAUGUAGUUCAUUCAGAGGAUAUAGGAUGGGCUAGAAGGCUGAAAAGUGCUUCGAGUGAUGUUCGAAGAU [Exclusion FMN A GF 6] | 0.0447
AUAGGAGUGAUGUUCCUUAGUUUCUCCGAUACCAGUAUGGAAACAUACCCUUGGCAGCGGGAGACCGCUGAUUAGGAAACUAGUC [Theophylline A K4 8] | 0.22
GCUAUGGUAGGAAGGAGCGCUUAUUCAUUAAUAAGAGUGAUGUUCGAUAAUGAAUAUUUAUAGCAGGUAGGUCGCCUACUAUAGC [Arginine B K4 2] | 0.237
GGUAGCAUGGCGGCCGCCACUCGGACGACAUAGCACAUGUCGACCAGUGAUGUUGGUUCAAACACGAGGACCGGGCCAUGCUACC | 0.135
AGGGAUGUUAAAGGAUAUAGAAAGUGAUGUUAGAAAGUGAGUGAUGUUGAUGUUAGUGAUGUUAUGUUAGAAGGUUAACAAAACG [a] | 0.161
ACACUUUACGUAGGAUAUGCGACGAGUGAUGUUCGUCAGGCGGCUCUAGAUUAAACAAGCCGCCUAGCAGAAGGACGGGCAGUGU [Teaanso] | 0.163
GCUAAGGAGUGAUGUUCCAAGUGAUGUUAACGAGGACCGGUACGGCCGCCACUCGAUACGGCCGGACCGUAAGAUAAACUACAGC [Same State - Tryptophan A (Freestyle 6)] | 0.194
AGACGCCAGUCGGCCGCCACUCACAGCAGUGAUGUUGCUGAGAAUCUAGAAGAGUGAUGUUCUUAGAGGACCGGGACUCCAGUCG [Same State Tryptophan B GF 7] | 0.306

Sequence | apparent KD of K4 kissing-loop reporter [µM]
GUUACUUCAGAAGGAUAUUAGUAAACAACACGGUAGUGAUGUUACCGUUAUCAAGCCCGGCUUCACUAAGAAGGUCUCCACCGCG [theeternabot_sameState_KL_FMN_B_23] | 0.0541
GUUUGGCGGGCGGCCGCCACUCGGACGAGUCGCAGUGAUGUUGUGGUUUGCCAGUCGUCUUCAUCGAGGACCGGGUUUGUCGGGC [Exclusion Tryptophan B GF 19] | 0.496
CGAAGAAAGGUAUGUGGGAUCUGCGCGUAACGAGGACCGGUACGGCCGCCACUCGACGUCGCAUACGGCCCAGUGAUGUUGGGUG [theeternabot_sameState_KL_Trp_A_14] | 0.0534
AAAUAAAACUAUGAUACCAGUCAUCACAGAGUGAUGUUUUGUGGCAUUUUAAACUUGGCAGACCCUUGGCAGCAUGAUAUAGGAG [theeternabot_sameState_KL_Theo_B_8] | 0.261
UUUAUAUAGUCGGCCGCCACUGAUUUUUAUAUAUGUUUAUGUUUAUACGAGUGAUGUUCGUUAUUCAGGACCGGGACUUUUGUUA [JR_SSTryptoB_Sub016] | 0.102
UGAUACCAGGCGGCCGCCACUCCCGCAGGUCAAAGACCUGCGAAGCUGGUUCUUCAGUGAUGUUGGAGGACCGGGCCUGGUAUCU [FiskerMod 25 - Jieux - Exclusion - Tryptophan B] | 0.494
AAUAAGGUCGCCGAUACCAGCGCAGGCAGAGCAAAGCUCUGCCAAGUAGUGAUGUUACUGCGCCCUUGGCAGCGGUGGCACGACC [Omei KL Theo B SS C v3] | 0.167
UUGUGCAGCAAUCGAGUGAUGUUCGACGAUACCAGCCUCGAUAGAGGCCCUUGGCAGCGUAUCAUCACAUGCCAAGAGCUGCACU [#SwitchBubble 5] | 0.419
AUGGUAUUGCGAGGAUAUCCUUCAAAUGUGACACUAACGGCAGUGAUGUUGCCGGCGUCUUUUUGAGGAGAAGGCGCGGUGUUAU [Exclusion FMN B GF 24] | 0.114
CCGAAGAACCAGUGAUGUUGGUUGACUAGACAGGAUAUGAGCAACAUCAGAAGGGUCUGGCUUCGGGAGAGAGUCGCGCUGACCU [Anditebier] | 0.453
GCGAUCUGCAUCGAUACCAGCCCAGUGAUGUUGGGCUGCUCUCCAUGGGUGCCAGACACGGGCCCUUGGCAGCGAGGUAGAGCCC [Maonzaa] | 0.115
GAGCGGUGGAGGUUACCGCUAUUCUGAGAAGGAGCGCAGAUGACUGCAGGUAGGUCGCUUAGAGCUUGCAGUGAUGUUGCAAGUU [Edrirama] | 0.213
CGAGUGAUGUUCGAAGAGUUGUUGAGCGAUACCAGCCAGGAAACUGGCCCUUGGCAGCGUAAUAAAUAAAUAAAUAAAUGAUCAC [whbob_Ex_Theo_A_th61] | 0.333
GACUCAUGUAGAAGGAGCGUCAGAAGCUACAGACAUGAGUGAUGUUCAUGUUAGUUGAUCUGACAGGUAGGUCGCUACAGCAGGA [KL-SSArg B14 #analogue] | 0.15
UUACGCGGCAUAGAUACCAGCAAUGCAGGAUAGGUCAAGAGUGAUGUUCUGAUACUUGGGUGCCCUUGGCAGCUAGACGAUAACA [theeternabot_sameState_KL_Theo_B_46] | 0.308
AAUAAACAGUCGGCCGCCACUUCAAUAGACUUAUUAUUGAAUGGUGUAGUUCUUCAGUGAUGUUGAAGGACCGGGACUUUCGCGC [Isesator] | 0.158
CAGCAGAGUGAUGUUCUGCUUACUGCGGAUACCAGCUUUGCCAGAGGCCCUUGGCAGCCGCACGGCUCAGUGAUGUUGGGUCACG [Same State Theophylline A GF 13] | 0.301
UGAUAGGACAGAAGGAGCGGAAGCUAGUCAAAGACUAGCAAACGUUAAACAGGAGUGAUGUUCCAGGUAGGUCGCUGUCCUAUCU [ArgBX 23 #SwitchBubble #StaticStem] | 0.119
UAUUGUACAGGGAAAUUGAUAAUAGACUUACGAGGACCGGUACGGCCGCCACUCGAUAGUCGAGUGAUGUUCGAAUGCUAUUGAU [Attempt 1] | 0.132
UGAUACCAGACGGCCGCCACUUCUGCAAGUCAAAGACUUGCCAAGGGAAUCGUCCAGUGAUGUUGGAGGACCGGGUCUGGUAUCU [FiskerMod 3 - Jieux - Exclusion - Tryptophan B] | 0.668
